Measured values published in article PMC7053772, “Characterization and assembly of the Pseudomonas aeruginosa aspartate transcarbamoylase-pseudo dihydroorotase complex” (PLoS ONE, 2020).

B1: Pseudomonas aeruginosa aspartate transcarbamoylase catalytic chain (enzyme, Pseudomonas aeruginosa (strain PAO1), UniProt Q59653 1-334, looked up)
chain: MPTDAKRPLQLNDQGQLRHFISLDGLPRELLTEILDTADSFLEVGARAVKKVPLLRGKTVCNVFFENSTRTRTTFELAAQRLSADVISLNVSTSSTSKGETLTDTLRNLEAMAADMFVVRHSDSGAAHFIAEHVSPNVAVINGGDGRHAHPTQGMLDMLTIRRHKGNFEQLSVAIVGDILHSRVARSNMLALKTLGCPDIRVIAPRTLLPIGLEEQYGVRVFTNADEGLKDVDVVIMLRLQRERMQGGLLPSEGEFFKLYGLTEKRLKLAKPDAIVMHPGPINRGVEIESAVADGAQSVILNQVTYGIAIRMAVLSMAMSGQNTQRQLEQEDAE
notes: Aspartate transcarbamoylase (ATCase) catalytic chain of Pseudomonas aeruginosa strain PAO1, gene pyrB; about 36-37 kDa; The pyrB gene was amplified by PCR and put into pETite; Removal of the His tag is not mentioned; also called ATCase; ATCase subunit
B2: Pseudomonas aeruginosa pseudo dihydroorotase (natural protein, Pseudomonas aeruginosa (strain PAO1), UniProt Q51551 1-423, looked up)
chain: MTISIRGARVIDPASDLDQVGDLHIEAGKIVAIGAAPAGFSAQKTLDGAGLVAAPGLVDLSVALREPGYGRKGNVESETRAAAAGGTTSLCCPPYTRPVLDTPAVAELILDRAREAGNAKVYPIGALTRGFGGEQLSELVALRDTGCVAFTNGLHGFASNRILRRALEYAATFDLTVIFTSQDTDLAEGGLAHEGPTASFLGLAGIPETAETVALARNLLLVEQSGVRAHFSQLTSARGIELVAQAQARGLPVTCDVALYQLILTDEALVGFSSLYHVQPPLRTRADREALREAVKNGVVQAIASHHQPHEADAKNAPFAATEPGISGAELLLPLAMTLVQDGLLDLPTLLARLSHGPAQALRLPAGRLAVGQAADLVLFDPQGSTLAGESWYSKGQNSPFVGHCLPGRVRYTLVDGHLTHEG
notes: Dimer by size exclusion chromatography; also called pDHO; pseudo-DHO; source: also co-transformed and co-purified with mutant ATCases

How the values were obtained:
[1] = molecular target: T1, P. aeruginosa ATCase-pDHO complex (Pseudomonas aeruginosa, UniProt Q59653); assay: colorimetric ATCase assay, carbamoyl phosphate saturation curves; format: biochemical; details: 8 mM aspartate, 37°C; PALA 0-500 nM; bisubstrate inhibitor
T1 construct: gene pyrB; both full-length subunits with N-terminal 6xHis tag (pETite), E. coli BL21(DE3), Ni-purified, mixed 1:1; 37 kDa + 45 kDa, 457 kDa dodecamer; with Dihydroorotase-like protein
T1 sequence (Q59653 1-334): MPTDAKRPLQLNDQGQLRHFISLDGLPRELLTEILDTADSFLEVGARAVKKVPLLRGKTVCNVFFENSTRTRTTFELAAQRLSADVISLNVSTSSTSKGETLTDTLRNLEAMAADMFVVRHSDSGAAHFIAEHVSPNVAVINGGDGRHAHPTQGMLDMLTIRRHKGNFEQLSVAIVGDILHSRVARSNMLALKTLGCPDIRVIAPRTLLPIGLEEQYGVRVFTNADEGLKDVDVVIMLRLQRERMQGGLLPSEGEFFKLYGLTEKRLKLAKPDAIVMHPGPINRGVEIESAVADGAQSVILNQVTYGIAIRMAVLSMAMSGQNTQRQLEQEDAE
T1 sequence (Q51551 1-423 partner): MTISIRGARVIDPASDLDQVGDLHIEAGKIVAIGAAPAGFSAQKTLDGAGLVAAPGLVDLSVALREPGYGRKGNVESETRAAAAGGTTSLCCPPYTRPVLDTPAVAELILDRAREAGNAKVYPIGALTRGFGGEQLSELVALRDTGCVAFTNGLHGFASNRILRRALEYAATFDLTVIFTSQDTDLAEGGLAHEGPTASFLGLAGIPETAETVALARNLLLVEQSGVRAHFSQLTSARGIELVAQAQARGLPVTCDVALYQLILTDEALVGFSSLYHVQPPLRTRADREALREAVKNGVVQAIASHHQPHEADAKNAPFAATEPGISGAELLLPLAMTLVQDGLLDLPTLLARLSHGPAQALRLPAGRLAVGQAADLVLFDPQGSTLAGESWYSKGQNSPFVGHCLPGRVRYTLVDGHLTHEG

[2] = substrate: NC(=O)OP(=O)(O)O; assay: purified protein; format: biochemical, Pseudomonas aeruginosa; details: 8 mM aspartate, 50 mM Tris/acetate pH 8.3, 37°C, Hill fit, text b47 prints 2.5 mM, Table 3 (0 ATP series) 0.88 ± 0.03 mM
[3] = substrate: N[C@@H](CC(=O)O)C(=O)O; assay: purified protein; format: biochemical, Pseudomonas aeruginosa; details: 10 mM carbamoyl phosphate, 50 mM Tris/acetate pH 8.3, 37°C, Hill fit
[4] = molecular target: B2; assay: SEC; complex reconstituted by mixing equimolar amounts of ATCase and pDHO; Superdex S-200, 50 mM Tris-HCl pH 7.5, 200 mM NaCl; fractions on SDS-PAGE; details: both partners purified
[5] = molecular target: B1; assay: cell-based or functional assay
[6] = molecular target: the molecule itself; assay: SEC; each Ni2+ column purified protein applied alone; Superdex S-200, 50 mM Tris-HCl pH 7.5, 200 mM NaCl; 2-mL sample of 5-10 mg/ml; calibrated column

With `O=C(O)C[C@H](NC(=O)CP(=O)(O)O)C(=O)O` [N-phosphonacetyl-L-aspartate] the “colorimetric ATCase assay, carbamoyl phosphate saturation curves” value [1] was “N-phosphonacetyl-L-aspartate is also a potent inhibitor of the of the P. aeruginosa enzyme”.

B1 showed a K0.5 [2] of 2.8 ± 0.18 mM, a Vmax [2] of 142 µmol/min/mg and a kcat [2] of 87.6 s⁻¹. For the same molecule, the kcat/Km [2] was 31000 M⁻¹ s⁻¹, the K0.5 [3] was 3.6 ± 0.41 mM and the Vmax [3] was 183 µmol/min/mg. The kcat [3] was 113 s⁻¹, the kcat/Km [3] was 31000 M⁻¹ s⁻¹ and the binding result [4] was “binds”.

B2 was tested, and the “ATCase activity of a fixed amount of ATCase (4 ug) titrated with pDHO (0-24.3 ug); molar ratio of ATCase to pDHO at which the activity levels off” value [5] was 0.97 mol pDHO per mol ATCase and the “stoichiometry N” value [6] was 2.
